Where “and” joins values, the source holds several entries; their conditions need not be identical. Equal entries are not always repeated.
Assays:
[1] = target: CD3 (CD3-TCR complex) on Promega PD1 effector cells (Jurkat T cells) (human); assay: cell-based or functional assay
[2] = target: T1, Human CD3 epsilon&CD3 delta Heterodimer Protein (human, UniProt P07766 23-126; P04234 22-105); assay: ELISA, CD3 epsilon/delta heterodimer coated at 50 ng/mL, HRP goat anti-human Fc
T1 construct: Bought heterodimer; also called Human CD3 epsilon&CD3 delta Heterodimer蛋白; CD3抗原

MUC17 on LS174T cells [3] = target: T2, MUC17 on LS174T cells (human, UniProt Q685J3 26-4493); assay: flow cytometry on LS174T cells, PE goat anti-human Fc
MUC17 on LS174T cells [4] = target: T2, MUC17 on LS174T cells; assay: cell-based or functional assay
MUC17-ECD-His蛋白 = target: T3, MUC17-ECD-His蛋白 (human, UniProt Q685J3 26-4393); assay: ELISA, MUC17-ECD-His coated at 500 ng/mL, HRP goat anti-human Fc
T3 construct: extracellular domain; Made in HEK-293E; the signal peptide added at the N-terminus is not part of the purified protein; also called MUC17抗原

T1 sequence (P07766 23-126, stated change not applied, chain 1 of 2): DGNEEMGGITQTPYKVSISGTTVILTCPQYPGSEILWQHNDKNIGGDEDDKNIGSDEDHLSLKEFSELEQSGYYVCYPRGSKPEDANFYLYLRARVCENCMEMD
T1 sequence (P04234 22-105, stated change not applied, chain 2 of 2): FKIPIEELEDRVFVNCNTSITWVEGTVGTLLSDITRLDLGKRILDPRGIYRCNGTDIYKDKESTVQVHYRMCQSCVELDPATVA

B1: 人源化抗CD3抗体huSP34 (antibody, human IgG1, kappa, V domains shown)
VH: EVQLVESGGGLVQPGGSLRLSCAASGFTFNTYAMNWVRQAPGKGLEWVARIRSKYNNYATYYADSVKDRFTISRDDSKNTLYLQMNSLRAEDTAVYYCVRHGNFGNSYVSWFAYWGQGTLVTVSS
VL: QAVVTQEPSLTVSPGGTVTLTCRSSTGAVTTSNYANWVQQKPGQAPRGLIGGTNKRAPGVPARFSGSLLGGKAALTLSGAQPEDEAEYYCALWYSNLWVFGQGTKVEIKR
notes: Humanized SP34, IgG1/kappa; positive control for the CD3 arm
EC 50 [1]: 0.73 nM and 0.624 nM | binding result [2]: binds

B2: anti-MUC17×CD3 BsAb CM5 (bispecific antibody, human IgG1, kappa)
heavy: not shown
light: QAVVTQEPSLTVSPGGTVTLTCRSSTGAVTTSNYANWVQQKPGQAPRGLIGGTNKRAPGVPARFSGSLLGGKAALTLSGAQPEDEAEYYCALWYSNLWVFGQGTKVEIKRTVAAPSVFIFPPSDEQLKSGTASVVCLLNNFYPREAKVQWKVDNALQSGNSQESVTEQDSKDSTYSLSSTLTLSKADYEKHKVYACEVTHQGLSSPVTKSFNRGEC
EC 50 [1]: 0.646 nM | Top [1]: 42300 | binding result (MUC17 on LS174T cells [3]): binds | binding result [2]: binds

B3: anti-MUC17×CD3 BsAb CM6 (bispecific antibody, human IgG1, kappa)
heavy: not shown
light: QAVVTQEPSLTVSPGGTVTLTCRSSTGAVTTSNYANWVQQKPGQAPRGLIGGTNKRAPGVPARFSGSLLGGKAALTLSGAQPEDEAEYYCALWYSNLWVFGQGTKVEIKRTVAAPSVFIFPPSDEQLKSGTASVVCLLNNFYPREAKVQWKVDNALQSGNSQESVTEQDSKDSTYSLSSTLTLSKADYEKHKVYACEVTHQGLSSPVTKSFNRGEC
EC 50 [1]: 1.11 nM | Top [1]: 45800 | binding result (MUC17 on LS174T cells [3]): binds | binding result [2]: binds

B4: anti-MUC17×CD3 BsAb CM7 (bispecific antibody, human IgG1, kappa)
heavy: not shown
light: QAVVTQEPSLTVSPGGTVTLTCRSSTGAVTTSNYANWVQQKPGQAPRGLIGGTNKRAPGVPARFSGSLLGGKAALTLSGAQPEDEAEYYCALWYSNLWVFGQGTKVEIKRTVAAPSVFIFPPSDEQLKSGTASVVCLLNNFYPREAKVQWKVDNALQSGNSQESVTEQDSKDSTYSLSSTLTLSKADYEKHKVYACEVTHQGLSSPVTKSFNRGEC
IC 50 (CD3+T细胞杀伤LS174T细胞, CellTiter-Glo) (MUC17 on LS174T cells [4]): 0.28 nM | EC 50 [1]: 1.41 nM | Top [1]: 80500 | binding result [2]: binds

B5: anti-MUC17×CD3 BsAb CM8 (bispecific antibody, human IgG1, kappa)
heavy: not shown
light: QAVVTQEPSLTVSPGGTVTLTCRSSTGAVTTSNYANWVQQKPGQAPRGLIGGTNKRAPGVPARFSGSLLGGKAALTLSGAQPEDEAEYYCALWYSNLWVFGQGTKVEIKRTVAAPSVFIFPPSDEQLKSGTASVVCLLNNFYPREAKVQWKVDNALQSGNSQESVTEQDSKDSTYSLSSTLTLSKADYEKHKVYACEVTHQGLSSPVTKSFNRGEC
EC 50 [1]: 1.17 nM | Top [1]: 76700 | binding result (MUC17 on LS174T cells [3]): binds | binding result [2]: binds

B6: 27A3人源化抗体(hu-27A3) (antibody, human IgG1, kappa, V domains shown)
VH: QVQLVQSGAEVKKPGASVKVSCKASGYSFTIYWMHWVRQAPGQGLEWIGMSHPSDSESRLNQKFKDRATLTVDKSTSTAYMELSSLRSEDTAVYYCSRPYYGSSAWFADWGQGTLVTVSA
VL: DIVMTQSPDSLAVSLGERATINCKSSQSLLNSSNQKNYLAWYQQKPGQSPKLLIYFASTRESGVPDRFSGSGSGTDFTLTISSLQAEDVAVYYCQQHYSFPLTFGAGTKLELRR
notes: Humanized anti-MUC17 IgG1/kappa, made in HEK-293E; also called 抗MUC17的人源化单克隆抗体
EC 50 (MUC17-ECD-His蛋白): 0.0893 nM

— CN116284427A (SUNSHINE GUOJIAN PHARMACEUTICAL SHANGHAI CO LTD, dated 2023)
